US20050287608A1 (UNIVERSITY OF MEDICINE AND DENTISTRY, published 2005)
Where a chain is given by its changes, count along the chain named.

B1: Flag-Rad23 (yeast Rad23 with an amino-terminal Flag epitope) (other, yeast (Saccharomyces cerevisiae), UniProt P32628 1-398, looked up, not shown: small tags and cut ends)
chain: MVSLTFKNFKKEKVPLDLEPSNTILETKTKLAQSISCEESQIKLIYSGKVLQDSKTVSECGLKDGDQVVFMVSQKKSTKTKVTEPPIAPESATTPGRENSTEASPSTDASAAPAATAPEGSQPQEEQTATTERTESASTPGFVVGTERNETIERIMEMGYQREEVERALRAAFNNPDRAVEYLLMGIPENLRQPEPQQQTAAAAEQPSTAATTAEQPAEDDLFAQAAQGGNASSGALGTTGGATDAAQGGPPGSIGLTVEDLLSLRQVVSGNPEALAPLLENISARYPQLREHIMANPEVFVSMLLEAVGDNMQDVMEGADDMVEGEDIEVTGEAAAAGLGQGEGEGSFQVDYTPEDDQAISRLCELGFERDLVIQVYFACDKNEEAAANILFSDHAD
B2: Flag-rad23^uba1uba2 (yeast Rad23 with mutations in both UBA domains, amino-terminal Flag epitope) (other, yeast (Saccharomyces cerevisiae), UniProt P32628 1-398, looked up, not shown: small tags and cut ends)
chain: B1 chain with L183A, L392A

Target: Ub-Pro-βgal (proteolytic test substrate, ubiquitinated in yeast cells) (UniProt P00722 1-1024 = β-galactosidase, ubiquitinated in the cells (multi-Ub chains; sites not stated))
Assay: cell-based or functional assay

Ub-Pro-βgal (proteolytic test substrate, ubiquitinated in yeast cells), sequence (P00722 whole entry): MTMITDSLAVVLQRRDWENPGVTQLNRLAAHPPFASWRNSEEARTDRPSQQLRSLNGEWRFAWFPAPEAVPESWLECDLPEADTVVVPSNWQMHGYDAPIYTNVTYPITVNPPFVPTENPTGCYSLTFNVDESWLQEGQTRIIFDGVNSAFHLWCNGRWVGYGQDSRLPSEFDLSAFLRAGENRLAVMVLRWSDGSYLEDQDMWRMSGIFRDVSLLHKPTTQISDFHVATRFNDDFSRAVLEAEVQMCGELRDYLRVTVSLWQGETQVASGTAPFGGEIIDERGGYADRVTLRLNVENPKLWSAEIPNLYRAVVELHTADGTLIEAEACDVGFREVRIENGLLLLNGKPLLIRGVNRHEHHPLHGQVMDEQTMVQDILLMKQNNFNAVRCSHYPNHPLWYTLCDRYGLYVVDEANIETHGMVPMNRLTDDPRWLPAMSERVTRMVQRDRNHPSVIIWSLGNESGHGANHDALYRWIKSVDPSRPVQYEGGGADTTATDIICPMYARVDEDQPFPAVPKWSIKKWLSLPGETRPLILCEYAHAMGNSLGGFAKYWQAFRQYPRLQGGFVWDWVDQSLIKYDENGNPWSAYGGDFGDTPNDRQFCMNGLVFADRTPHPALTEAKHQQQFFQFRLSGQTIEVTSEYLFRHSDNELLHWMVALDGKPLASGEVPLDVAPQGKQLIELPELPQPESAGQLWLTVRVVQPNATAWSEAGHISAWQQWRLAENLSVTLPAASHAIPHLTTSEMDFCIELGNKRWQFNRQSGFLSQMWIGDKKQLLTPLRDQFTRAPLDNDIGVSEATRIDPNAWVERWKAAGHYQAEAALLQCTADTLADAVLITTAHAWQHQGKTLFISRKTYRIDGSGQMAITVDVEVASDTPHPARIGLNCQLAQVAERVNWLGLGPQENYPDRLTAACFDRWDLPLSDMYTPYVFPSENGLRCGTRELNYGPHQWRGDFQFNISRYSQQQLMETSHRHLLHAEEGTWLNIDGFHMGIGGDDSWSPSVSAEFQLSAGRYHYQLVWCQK

Binder	t1/2 of Ub-Pro-βgal by pulse-chase on overexpression of Flag-Rad23 in yeast [min]	t1/2 of Ub-Pro-βgal by pulse-chase on expression of Flag-rad23^uba1uba2 in yeast [min]
B1	> 100	
B2		~10
